The results in this text go back to patent US20220227815A1, “COMPOSITIONS AND METHODS USEFUL IN TREATING BRAIN DISEASES” (University of Kansas, priority 2019, published 2022).

For data set [1], the system named is myelin in the lateral corpus callosum. Briefly: Remyelination in EAE mouse brain, Luxol fast blue staining. In kind it is in vivo, SJL/elite mice. To be noted: EAE mice; BDNF 5.71 nmol/kg ± ADTC5 10 μmol/kg; n=5; compared to BDNF alone or vehicle. An excerpt: Euthanasia, Brain Perfusion, and Extraction: All mice were euthanized via a CO2 chamber. Immediately following euthanasia, mice underwent cervical dislocation and were transcardially perfused with PBS+0.2% Tween-20 followed by perfusion-fixation with a 4% paraformaldehyde and 30% sucrose PBS solution. Following the fixation, the brains were extracted and post-fixed overnight in the perfusion-fixation solution.
Fixed brain samples were submitted to IHC World (Ellicott City, Md.) for paraffin embedding, tissue sectioning (5 μm), anti-NG2 (Abcam, Cambridge, UK) staining via DAB, and Luxol-fast blue staining. Staining protocols described on the IHC World website for Luxol-fast blue and immunohistochemistry enzyme HRP were performed. […]
Luxol-fast blue and anti-NG2 mAb images were taken under identical conditions on a Zeiss Axioplan 2 microscope (Oberkochen, Germany) equipped with a mercury lamp excitation source, and 40× (Luxol) and 20× (anti-NG2) air objective lenses. Greyscale images for quantification were taken using a 1344×1024 Orca ER CCD camera (Hamamatsu Photonics, Japan), color images for qualitative purposes were taken using a 1.3 MP Spot Color camera (Spot Imaging, Sterling Heights, Mich.). […] The mean value of each ROI from each image was recorded. […] The integrated mean grey value for each ROI from each image was recorded. […]

Data set [2] relates to recombinant BDNF and pTrkB. Briefly: Western blot detection of recombinant BDNF and pTrkB in brain. In kind it is in vivo, SJL/elite mice. To be noted: BDNF 5.71 nmol/kg i.v. with or without ADTC5 10 μmol/kg; 20 min; n=3. The procedure: Female SJL/elite mice, 5 weeks of age (Charles River) were initially intravenously injected via lateral tail vein with 5.71 nmol/kg BDNF (Peprotech, Rocky Hill, N.J.) with (n=3) or without (n=3) 10 μmol/kg ADTC5. BDNF was allowed to circulate for 20-30 min prior to euthanasia via CO2. Immediately following euthanasia, mice were transcardially perfused with protease inhibitor infused TRIS buffer (pH 7.4). The brains of the mice were extracted and placed in the perfusate buffer on ice. For Western blotting, 100-150 mg of brain tissue was sectioned from the most ventral-posterior portion of the brain and placed in 200-250 μL of solution mixture containing 66% tissue protein extraction reagent (TPER; Thermo Fisher, Waltham, […].) and 33% […] neural protein extraction reagent (NPER; Thermo Fisher) with protease and phosphatase inhibitors (Thermo Fisher). […] These bands were not densiometrically analyzed due to high background signal; however, they are shown for qualitative analysis.
To improve the level of detection of BDNF and pTrkB bands via Western blot, the above process was repeated with an increase in dosages of BDNF. […] These images were not quantified due to the variation in dosing regiments; however, they are provided for qualitative analysis of BDNF brain depositions.
For orientation: Immunoblotting shows a protein as a band on a membrane.

B1: BDNF: recombinant brain-derived neurotrophic factor (13 kDa monomer), Peprotech (protein, UniProt P23560 19-247, looked up)
Neurotrophic factor BDNF …: APMKEANIRGQGGLAYPGVRTHGTLESVNGPKAGSRGLTSLADTFEHVIEELLDEDQKVRPNEENNKDADLYTSRVMLSSQVPLEPPLLFLLEEYKNYLDAANMSMRVRRHSDPARRGELSVCDSISEWVTAADKKTAVDMSGGTVTVLEKVPVSKGQLKQYFYETKCNPMGYTKEGCRGIDKRHWNSQCRTTQSYVRALTMDSKKRIGWRFIRIDTSCVCTLTIKRGR
In the case of B1, the “myelin density in the lateral corpus callosum” value in data set [1] is listed as “myelin discontinuity”. For the same molecule, the “detection of BDNF bands in the brain” value in data set [2] is “undetected”.
